B1: Gap (20-nt) (structured_DNA)
DNA: ACATGATGCATCGTTAGGCGATTCCGCCTAACGATGCATCATGTTTTTTTTTTTTTTTTTTTTTCGCGAACCCTATTTAGGGTTCGCG
B2: Double-Flap (structured_DNA)
DNA: TTCACGAGATTTACTTATTTCACTGCGGCTACATGATGCATCGTTAGGCGATTCCGCCTAACGATGCATCATGTCGCGAACCCTATTTAGGGTTCGCGT
B3: Nick (structured_DNA)
DNA: ACATGATGCATCGTTAGGCGATTCCGCCTAACGATGCATCATGTCGCGAACCCTATTTAGGGTTCGCG
B4: Flap (30-nt 5'-flap) (structured_DNA)
DNA: TTCACGAGATTTACTTATTTCACTGCGGCTACATGATGCATCGTTAGGCGATTCCGCCTAACGATGCATCATGTCGCGAACCCTATTTAGGGTTCGCG
B5: Biotin-Flap, streptavidin-blocked (structured_DNA)
DNA: B4 DNA
modifications: 5' biotin
B6: 5'-Tail (structured_DNA)
DNA: TTCACGAGATTTACTTATTTCACTGCGGCTACATGATGCATCGTTAGGCGATTCCGCCTAACGATGCATCATGT
B7: Fork (structured_DNA)
DNA: TTCACGAGATTTACTTATTTCACTGCGGCTACATGATGCATCGTTAGGCGATTCCGCCTAACGATGCATCATGTTGTTACCCTTTGA

Assays:
[1] = biological target: T1, Dna2 E675A (nuclease-defective) (UniProt P38859 1-1522, E675A); assay: EMSA
[2] = biological target: T1, Dna2 E675A (nuclease-defective); assay: competition
[3] = biological target: T1, Dna2 E675A (nuclease-defective); assay: DNase I footprinting
[4] = biological target: T1, Dna2 E675A (nuclease-defective); assay: competition; remark: listed apart in the source

T1 sequence (P38859 whole entry E675A): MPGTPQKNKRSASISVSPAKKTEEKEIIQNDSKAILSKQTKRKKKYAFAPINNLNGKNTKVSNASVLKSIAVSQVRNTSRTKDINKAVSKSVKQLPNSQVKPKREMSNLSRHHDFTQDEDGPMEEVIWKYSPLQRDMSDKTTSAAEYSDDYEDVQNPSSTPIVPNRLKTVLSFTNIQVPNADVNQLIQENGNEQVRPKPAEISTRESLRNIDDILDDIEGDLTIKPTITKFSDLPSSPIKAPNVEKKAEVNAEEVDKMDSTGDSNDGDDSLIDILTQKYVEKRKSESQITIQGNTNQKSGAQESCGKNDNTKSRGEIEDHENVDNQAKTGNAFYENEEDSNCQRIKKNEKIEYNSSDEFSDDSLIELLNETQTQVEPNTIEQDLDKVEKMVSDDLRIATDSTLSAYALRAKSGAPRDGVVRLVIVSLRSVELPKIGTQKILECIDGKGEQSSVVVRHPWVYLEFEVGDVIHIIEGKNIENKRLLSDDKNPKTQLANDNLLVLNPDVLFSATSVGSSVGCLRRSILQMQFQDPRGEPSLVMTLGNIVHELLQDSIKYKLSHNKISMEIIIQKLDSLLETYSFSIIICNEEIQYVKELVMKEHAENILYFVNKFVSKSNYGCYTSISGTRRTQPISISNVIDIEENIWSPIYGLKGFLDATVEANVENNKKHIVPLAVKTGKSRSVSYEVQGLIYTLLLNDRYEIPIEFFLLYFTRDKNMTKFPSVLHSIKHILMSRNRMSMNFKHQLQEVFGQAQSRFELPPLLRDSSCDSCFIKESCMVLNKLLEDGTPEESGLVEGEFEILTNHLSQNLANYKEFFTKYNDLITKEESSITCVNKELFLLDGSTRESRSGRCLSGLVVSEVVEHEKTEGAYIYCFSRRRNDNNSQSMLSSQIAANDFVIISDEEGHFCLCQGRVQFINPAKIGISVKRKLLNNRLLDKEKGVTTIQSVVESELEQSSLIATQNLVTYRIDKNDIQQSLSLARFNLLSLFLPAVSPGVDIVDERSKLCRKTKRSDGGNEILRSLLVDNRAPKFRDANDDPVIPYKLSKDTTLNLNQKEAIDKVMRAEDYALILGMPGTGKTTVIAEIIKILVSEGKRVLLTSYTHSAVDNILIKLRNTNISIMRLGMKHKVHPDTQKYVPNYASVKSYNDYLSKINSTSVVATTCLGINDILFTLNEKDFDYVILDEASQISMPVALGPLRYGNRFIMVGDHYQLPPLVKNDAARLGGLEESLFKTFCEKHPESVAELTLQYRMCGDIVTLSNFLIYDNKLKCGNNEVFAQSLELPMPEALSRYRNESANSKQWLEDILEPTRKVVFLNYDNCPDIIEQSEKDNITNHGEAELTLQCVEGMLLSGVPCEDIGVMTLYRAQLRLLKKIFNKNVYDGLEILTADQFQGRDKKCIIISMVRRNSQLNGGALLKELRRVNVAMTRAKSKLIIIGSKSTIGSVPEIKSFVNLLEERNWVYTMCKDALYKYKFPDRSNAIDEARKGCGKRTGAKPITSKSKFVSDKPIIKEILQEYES

Binder | Kd [1] | further results
B1 | 6.7 nM | 
B2 | 7 nM | 
TTCACGAGATTTACTTATTTCACTGCGGCT (ssDNA) [ssDNA 30-nt] |  | binding result [2]: binds
B3 |  | binding result [3]: binds
B4 | 8.4 nM | 
B5 |  | binding result [4]: binds
B6 | 8.5 nM | 
B7 | 9.2 nM | 
